From publication PMC8432352

Assays:
Test in all cases: SDS-PAGE without heating
[1] = target: Tail spike protein 2 (TSP2) of Salmonella phage S117 (Salmonella phage S117)
[2] = target: Tail spike protein 1 (TSP1) of Salmonella phage S117 (Salmonella phage S117)
[3] = target: Tail spike protein 3 (TSP3) of Salmonella phage S117 (Salmonella phage S117)
[4] = target: Tail spike protein 4 (TSP4) of Salmonella phage S117 (Salmonella phage S117)

Work on “Tail spike protein 2 (TSP2) of Salmonella phage S117 (natural protein)” yielded a stoichiometry N [1] of 3.

For “Tail spike protein 1 (TSP1) of Salmonella phage S117 (natural protein)”, the stoichiometry N [2] was 3.

For “Tail spike protein 3 (TSP3) of Salmonella phage S117 (natural protein)”, the stoichiometry N [3] was 3.

Work on “Tail spike protein 4 (TSP4) of Salmonella phage S117 (natural protein)” yielded a stoichiometry N [4] of 3.
